Measured values from US20170002055A1, “Novel peptides and combination of peptides for use in immunotherapy against ovarian cancer and other cancers” (immatics biotechnologies GmbH, priority 2015, published 2017).

target: HLA-A*02:01 (Homo sapiens, UniProt P04439, D140Y/D185E/D98H/E176V/E277Q/G131W/G231S/I119V/I121R/I166T/I218V/L300P/L318F/N151K/N90K/P208A/P217A/Q86G/Q94H/R138H/R169H/T345S); test: MHC binding assay (UV-ligand exchange, β2m ELISA, peptide exchange yield); details: MHC class I binding score; binding to HLA-A*02:01 ranged by peptide exchange yield (UV-ligand exchange, β2m ELISA)
Procedure, shortened: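 Peptide–HLA-A*02:01 complexes were formed by UV-mediated exchange of a UV-cleavable ligand for the test peptide. Exchange yield was measured by capturing complexes on streptavidin, detecting with HRP anti-β2m antibody (1 h, 37°C) and reading TMB absorbance at 450 nm.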

| Peptide exchange | Substance |
| --- | --- |
| “+++” (≧50 = +++) | 551 (KLYESLLPFA; listed as Homo sapiens) [compound 551] |
| “++++” (≧75% = ++++) | 552 (GLLDLPFRVGV; listed as Homo sapiens) [compound 552] |
| “++++” (≧75% = ++++) | 553 (SLLNQDLHWSL; listed as Homo sapiens) [compound 553] |
| “+++” (≧50 = +++) | 554 (LLMPSSEDLLL; listed as Homo sapiens) [compound 554] |
| “+++” (≧50 = +++) | 555 (YVLEGLKSV; listed as Homo sapiens) [compound 555] |
| “+++” (≧50 = +++) | 556 (FLTDLEDLTL; listed as Homo sapiens) [compound 556] |
| “+++” (≧50 = +++) | 557 (KLYDDMIRL; listed as Homo sapiens) [compound 557] |
| “+++” (≧50 = +++) | 558 (GLLENIPRV; listed as Homo sapiens) [compound 558] |
| “++” (≧20% = ++) | 559 (VTVPPGPSL; listed as Homo sapiens) [compound 559] |
| “+++” (≧50 = +++) | 560 (ALWDIETGQQTTT; listed as Homo sapiens) [compound 560] |
| “+++” (≧50 = +++) | 561 (YLQLTQSEL; listed as Homo sapiens) [compound 561] |
| “+++” (≧50 = +++) | 562 (YLEELPEKLKL; listed as Homo sapiens) [compound 562] |
| “+++” (≧50 = +++) | 563 (WLLPYNGVTV; listed as Homo sapiens) [compound 563] |
| “+++” (≧50 = +++) | 564 (TVTNAVVTV; listed as Homo sapiens) [compound 564] |
| “++” (≧20% = ++) | 565 (ALQETPTSV; listed as Homo sapiens) [compound 565] |
| “++” (≧20% = ++) | 566 (VIADGGIQNV; listed as Homo sapiens) [compound 566] |
| “+++” (≧50 = +++) | 567 (SLLPLDDIVRV; listed as Homo sapiens) [compound 567] |
| “++++” (≧75% = ++++) | 568 (TLYDIAHTPGV; listed as Homo sapiens) [compound 568] |
| “+++” (≧50 = +++) | 569 (KLVDRTWTL; listed as Homo sapiens) [compound 569] |
| “++” (≧20% = ++) | 570 (ALANQIPTV; listed as Homo sapiens) [compound 570] |
| “+++” (≧50 = +++) | 571 (LLLTTIPQI; listed as Homo sapiens) [compound 571] |
| “+++” (≧50 = +++) | 572 (ALADLIEKELSV; listed as Homo sapiens) [compound 572] |
| “+++” (≧50 = +++) | 573 (ILVANAIVGV; listed as Homo sapiens) [compound 573] |
| “++” (≧20% = ++) | 574 (YLLQEPPRTV; listed as Homo sapiens) [compound 574] |
| “+++” (≧50 = +++) | 575 (YLISQVEGHQV; listed as Homo sapiens) [compound 575] |
| “++++” (≧75% = ++++) | 576 (ILLNNSGQIKL; listed as Homo sapiens) [compound 576] |
| “+++” (≧50 = +++) | 577 (VMFEDGVLMRL; listed as Homo sapiens) [compound 577] |
| “+++” (≧50 = +++) | 578 (FLDPGGPMMKL; listed as Homo sapiens) [compound 578] |
| “++” (≧20% = ++) | 579 (NLMEMVAQL; listed as Homo sapiens) [compound 579] |

Further lines, the substance ahead of its results:

| Substance | Peptide exchange |
| --- | --- |
| 494 (ALQPEPIKV; listed as Homo sapiens) [compound 494] | “++” (≧20% = ++) |
| 495 (FIFSEKPVFV; listed as Homo sapiens) [compound 495] | “+++” (≧50 = +++) |
| 496 (FLVEKQPPQV; listed as Homo sapiens) [compound 496] | “+++” (≧50 = +++) |
| 497 (GLLEKLTAI; listed as Homo sapiens) [compound 497] | “+++” (≧50 = +++) |
| 498 (KLWTGGLDNTV; listed as Homo sapiens) [compound 498] | “+++” (≧50 = +++) |
| 500 (SLMEDQVLQL; listed as Homo sapiens) [compound 500] | “+++” (≧50 = +++) |
| 501 (LLDPNVKSIFV; listed as Homo sapiens) [compound 501] | “+++” (≧50 = +++) |
| 502 (RLLAQVPGL; listed as Homo sapiens) [compound 502] | “+++” (≧50 = +++) |
| 503 (SLNHFTHSV; listed as Homo sapiens) [compound 503] | “+++” (≧50 = +++) |
| 504 (GLSDGNPSL; listed as Homo sapiens) [compound 504] | “++” (≧20% = ++) |
| 505 (SLAPGDVVRQV; listed as Homo sapiens) [compound 505] | “++” (≧20% = ++) |
| 506 (KLLGKVETA; listed as Homo sapiens) [compound 506] | “+++” (≧50 = +++) |
| 507 (KLIDDQDISISL; listed as Homo sapiens) [compound 507] | “+++” (≧50 = +++) |
| 508 (ILAQEQLVVGV; listed as Homo sapiens) [compound 508] | “+++” (≧50 = +++) |
| 509 (FLFDTKPLIV; listed as Homo sapiens) [compound 509] | “+++” (≧50 = +++) |
| 510 (KLYSVVSQL; listed as Homo sapiens) [compound 510] | “++” (≧20% = ++) |
| 512 (SLSEIVPCL; listed as Homo sapiens) [compound 512] | “+++” (≧50 = +++) |
| 513 (SLWPSPEQL; listed as Homo sapiens) [compound 513] | “++” (≧20% = ++) |
| 514 (ILVDWLVQV; listed as Homo sapiens) [compound 514] | “+++” (≧50 = +++) |
| 515 (LLQELVLFL; listed as Homo sapiens) [compound 515] | “+++” (≧50 = +++) |
| 516 (AVGPASILKEV; listed as Homo sapiens) [compound 516] | “++” (≧20% = ++) |
| 517 (LLMPIPEGLTL; listed as Homo sapiens) [compound 517] | “+++” (≧50 = +++) |
| 519 (GLLHLTLLL; listed as Homo sapiens) [compound 519] | “+++” (≧50 = +++) |
| 520 (LAVHPSGVAL; listed as Homo sapiens) [compound 520] | “+” (≧10% = +) |

| Substance | Peptide exchange |
| --- | --- |
| 521 (MLLTKLPTI; listed as Homo sapiens) [compound 521] | “+++” (≧50 = +++) |
| 522 (TLWYRSPEV; listed as Homo sapiens) [compound 522] | “++” (≧20% = ++) |
| 523 (YQIPRTFTL; listed as Homo sapiens) [compound 523] | “++” (≧20% = ++) |
| 524 (ALIENLTHQI; listed as Homo sapiens) [compound 524] | “++” (≧20% = ++) |
| 525 (VLLEAGEGLVTI; listed as Homo sapiens) [compound 525] | “+++” (≧50 = +++) |
| 526 (RLAEVGQYEQV; listed as Homo sapiens) [compound 526] | “++” (≧20% = ++) |
| 527 (FLLEPGNLEV; listed as Homo sapiens) [compound 527] | “++++” (≧75% = ++++) |
| 528 (SVAEGRALMSV; listed as Homo sapiens) [compound 528] | “+++” (≧50 = +++) |
| 529 (LLADELITV; listed as Homo sapiens) [compound 529] | “+++” (≧50 = +++) |
| 530 (VMYADIGGMDI; listed as Homo sapiens) [compound 530] | “+++” (≧50 = +++) |
| 531 (YTLPIASSIRL; listed as Homo sapiens) [compound 531] | “+++” (≧50 = +++) |
| 537 (TLAPGEVLRSV; listed as Homo sapiens) [compound 537] | “+++” (≧50 = +++) |
| 538 (LLLAHIIAL; listed as Homo sapiens) [compound 538] | “++” (≧20% = ++) |
| 539 (ALFDAQAQV; listed as Homo sapiens) [compound 539] | “+++” (≧50 = +++) |
| 541 (SMLEPVPEL; listed as Homo sapiens) [compound 541] | “+++” (≧50 = +++) |
| 542 (RVWDISTVSSV; listed as Homo sapiens) [compound 542] | “+++” (≧50 = +++) |
| 543 (GLLPTPITQQASL; listed as Homo sapiens) [compound 543] | “+++” (≧50 = +++) |
| 544 (LLWDVPAPSL; listed as Homo sapiens) [compound 544] | “+++” (≧50 = +++) |
| 545 (LLADLLHNV; listed as Homo sapiens) [compound 545] | “+++” (≧50 = +++) |
| 546 (VMIAGKVAVV; listed as Homo sapiens) [compound 546] | “+++” (≧50 = +++) |
| 547 (TLDITPHTV; listed as Homo sapiens) [compound 547] | “+++” (≧50 = +++) |
| 548 (ALWENPESGEL; listed as Homo sapiens) [compound 548] | “++” (≧20% = ++) |
| 549 (AMLENASDIKL; listed as Homo sapiens) [compound 549] | “+++” (≧50 = +++) |
| 550 (FLYDEIEAEVNL; listed as Homo sapiens) [compound 550] | “+++” (≧50 = +++) |
